Publication PMC11475706, “ProEnd: a comprehensive database for identifying HbYX motif-containing proteins across the tree of life” (BMC Genomics, 2024)

Molecular target: T1, PAN-2 (MJ1494), HbYX ATPase from Methanocaldococcus jannaschii (Methanocaldococcus jannaschii, UniProt Q58889 1-371)
T1 construct: PAN-2 (MJ1494), Methanocaldococcus jannaschii, UniProt Q58889; The hexameric state is only an AlphaFold Multimer prediction, not a measurement; also called putative 26S proteasome regulatory subunit; source: E. coli BL21 star DE3 (pET-28a(+), IPTG), held on Ni-NTA agarose from clarified lysate and washed; not shown: His6, N-terminal, kept
T1 sequence (looked up): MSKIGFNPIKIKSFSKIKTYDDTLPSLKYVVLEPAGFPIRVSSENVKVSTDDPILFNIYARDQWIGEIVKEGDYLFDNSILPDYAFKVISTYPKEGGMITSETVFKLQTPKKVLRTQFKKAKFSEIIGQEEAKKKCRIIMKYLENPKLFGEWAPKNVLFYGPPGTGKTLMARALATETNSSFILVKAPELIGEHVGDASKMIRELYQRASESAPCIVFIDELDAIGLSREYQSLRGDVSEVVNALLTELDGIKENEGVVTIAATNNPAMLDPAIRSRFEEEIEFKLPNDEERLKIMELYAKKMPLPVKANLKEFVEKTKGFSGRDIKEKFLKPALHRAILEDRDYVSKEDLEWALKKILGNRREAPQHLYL
Test: pull-down; 6His-PAN-2 held on Ni-NTA agarose, washed with 50 mM Tris, 100 mM NaCl, 2 mM ATP, 10 mM MgCl2; tagless T20S incubated 20 min at room temperature; washed; eluted with 150 mM imidazole; T20S in the eluate quantified by suc-LLVY-amc hydrolysis; control: Ni-NTA columns with T20S alone
Conditions: both partners purified

B1: T20S proteasome (20S from Thermoplasma acidophilum) (complex)
chain 1: MQQGQMAYDRAITVFSPDGRLFQVEYAREAVKKGSTALGMKFANGVLLISDKKVRSRLIEQNSIEKIQLIDDYVAAVTSGLVADARVLVDFARISAQQEKVTYGSLVNIENLVKRVADQMQQYTQYGGVRPYGVSLIFAGIDQIGPRLFDCDPAGTINEYKATAIGSGKDAVVSFLEREYKENLPEKEAVTLGIKALKSSLEEGEELKAPEIASITVGNKYRIYDQEEVKKFL
chain 2: TTTVGITLKDAVIMATERRVTMENFIMHKNGKKLFQIDTYTGMTIAGLVGDAQVLVRYMKAELELYRLQRRVNMPIEAVATLLSNMLNQVKYMPYMVQLLVGGIDTAPHVFSIDAAGGSVEDIYASTGSGSPFVYGVLESQYSEKMTVDEGVDLVIRAISAAKQRDSASGGMIDVAVITRKDGYVQLPTDQIESRIRKLGLIL
notes: proteasome subunit alpha, Thermoplasma acidophilum; proteasome subunit beta, Thermoplasma acidophilum; The C-terminal 6His tag on the beta subunits is preceded by a TEV site, so residues of that site probably stay at the beta C-terminus after the cut (surmise); also called archaeal proteasome T20S; archaeal 20S proteasome; source: recombinant, expressed from pET-28a(+), purified (Ni-NTA, TEV cut, …)
- fold T20S pulled down against control Ni-NTA columns: 7 fold
